# Laboratory results from patent publication US20230183305A1, “KERATIN BD-11, PREPARATION METHOD THEREFOR AND PHARMACEUTICAL COMPOSITION AND USE THEREOF” (INSTITUTE OF MATERIA MEDICA, CHINESE ACADEMY OF MEDICAL …, priority 2019, published 2023).
# B1: BD-11: recombinant keratin, amino acid sequence SEQ ID NO:1, expressed in E. coli, band around 59 kD; Example 4 batch tested (protein, listed as Bos taurus)
# chain: MSRQSTITFQTSSRRGFSTASATTPATSRSRFSSASVTHSPAGSGGLGRISGFGSRSLYNLGGTKRVSISGCGSNFRSGFGGRASSGFGVSGGFGYGGGIGGGHGGCGFSVCPPGGIQEVTVNQSLLTPLNLQIDPNIQRVRKEEREQIKTLNNKFASFIDKVRFLEQQNKVLETKWSLLQEQGTRTVRQSLEPFFEAYITDLRRQLDSITTERGRLDAELRTMQDVVEDFKVRYEDEINKRTAAENEFVALKKDVDAAYLNKVDLEAKANSLTDEINFLQMLFEAELCQMQTRVSDTSVVLSMDNNRSLDLDSIIAEVKAQYEEIANRSRAEAESWYQTKYEELQVTAGQHGDDLRNTKQEISETNRMIQRLRAEIDNVKKQCASLQTAIADAEQRGELALKDARAKLVDLEEALQKSKQDMARLLREYQELMNIKLALDVEIATYRKLLEGEECRLSGEGVSPVNISVVTSTVSSGYGGGSSIGSGSLGLSGGSGCSFMTSGGHSLGGSSFSNSSSRGLGGSGSSFKFVSTTSSSRKSYKH
# Columns and labels:
# [1] = test system: lipopolysaccharide (LPS) induced fever in SD rats; assay: Lipopolysaccharide (LPS) induced fever model in SD rats; format: in vivo, rat; conditions: for Body temperature 2 hours after modeling: 2 h after LPS 20 µg/kg i.p.; for Body temperature 2 hours after modeling / Body temperature 4 hours after modeling / Body temperature 6 hours after modeling / Body temperature 8 hours after modeling: n=8; for Body temperature 4 hours after modeling: 4 h after LPS 20 µg/kg i.p.; for Body temperature 6 hours after modeling: 6 h after LPS 20 µg/kg i.p.; for Body temperature 8 hours after modeling: 8 h after LPS 20 µg/kg i.p.
# Description: • Animals: 230-260 grams of male SD rats; • Drugs: lipopolysaccharide (LPS, SIGMAL-2880), aspirin (SIGMA A2093), protein BD-11; • Instruments: electronic balance (SARTORIUS BP121S type), electronic clinical thermometer (CITIZEN CT-513W type).
# Experiment grouping: • Normal control group; • Model group: lipopolysaccharide fever model; • Positive control group: Aspirin 300 mg/kg group; • Protein BD-11, 10 mg/kg group, 50 mg/kg group. Method: the method of intraperitoneal injection of Lipopolysaccharide to replicate rat fever model.
# Preparation of experimental animals: After the experimental animals adapt to the experimental environment (temperature 22° C.±2° C., relative humidity 50%±2%) for 1 day. Pre-adaptation to measure rectal temperature at 8:00 and 15:00, rats were fasted and water was taken freely 12 h before experiment, and let the animal to empty its feces before measuring the rectal temperature. Apply petroleum jelly to the electronic thermometer probe before each temperature measurement. Insert the rat rectum 2 cm (can be marked at 2 cm to ensure that the depth of each insertion is consistent), and record the body temperature after the reading is stable.
# Intraperitoneal injection of lipopolysaccharide to replicate rat fever model: The body temperature of the rats was measured before modeling. Qualified rats with a body temperature of 36.2-37.3° C. were selected and randomly divided into groups with 8 rats in each group. After oral administration of aspirin and different doses of protein BD-11, lipopolysaccharide (20 µg/kg, 2 ml/kg) was injected intraperitoneally immediately, and the normal control group was injected intraperitoneally with an equal volume of normal saline. The body temperatures of the rats were monitored after 2 hours for a total of 8 hours.
# According to the body temperature measured at each time point on the day of the experiment, calculate the mean, standard deviation and standard error of the body temperature of each group of rats. The data of each group was compared with TTEST, and P<0.05 was considered as a significant difference.
# Immediately after oral administration of aspirin (300 mg/kg), protein BD-11 (10 mg/kg, 50 mg/kg), intraperitoneal injection of 20 µg/kg lipopolysaccharide was performed to establish a model. The animal body temperature was monitored at 2 hours, 4 hours, 6 hours, and 8 hours after modeling.
# [2] = test system: acetic acid writhing in ICR mice; assay: Acetic acid writhing test in ICR mice; format: in vivo, mouse; conditions: for Writhing incubation period: 0.6% acetic acid i.p.; for Writhing incubation period / Frequency of writhing: n=13; for Frequency of writhing: within 15 minutes
# Description: • Animals: male ICR mice; • Drugs and reagents: aspirin, physiological saline, glacial acetic acid, protein BD-11.
# Experiment grouping: • Model group; • Aspirin 300 mg/kg group; • Protein BD-11, 50 mg/kg group, 200 mg/kg group.
# One day after the experimental animals adapt to the environment, Aspirin 300 mg/kg, protein BD-11 50 mg/kg, 200 mg/kg were given orally one hour in advance, and the administration volume was 10 ml/kg; Then, 0.6% acetic acid solution was injected intraperitoneally, and the incubation period (seconds) and frequency of writhing in the animal was observed within 15 minutes.
# Calculate the mean and standard error of the data in each group. Compared with the model group by TTEST, P<0.05 was considered as statistically different.
# One hour after oral administration of aspirin 300 mg/kg and different doses of protein BD-11 (50 mg/kg, 200 mg/kg), 0.6% acetic acid solution was intraperitoneally injected to observe the writhing incubation period and frequency of ICR mice.
# 0.6% acetic acid solution was injected into the abdominal cavity of mice, which caused deep and large area and long-term painful stimulation, causing the mice to writhe (the abdomen was contracted into an “S” shape, the trunk and hind legs were stretched, the buttocks were raised and creeping). The incubation time to start writhing and times of writhing in mice were used as the pain response indexs to determine whether the test sample had analgesic effect. […] Compared with the model group, P<0.05, which is statistically significant.
# [3] = test system: PLO-induced epilepsy in ICR mice; assay: Pilocarpine (PLO) induced convulsive epilepsy in mice; format: in vivo, mouse; parameters: mortality rate: unit not given here; conditions: for Cases of deaths / Grade IV seizure rate / mortality rate / Cases of Grade IV: PLO 225 mg/kg i.p., 10 mice; for Cases of Grade IV: 30 min observation; for Grade II seizure incubation period / Grade III seizure incubation period / Grade IV seizure incubation period: mean±SEM; for Grade IV seizure incubation period: no Grade IV recorded as maximum 1800 s
# Description: • Animals: male ICR mice; • Drugs: Pilocarpine HCl (PLO, pilocarpine, pilocarpine hydrochloride), Diazepam (diazepam tablets), protein BD-11.
# Experiment grouping: • Model group: • Diazepam 2 mg/kg group; • Protein BD-11, 50 mg/kg group, 200 mg/kg group.
# The drug was administered once in the afternoon the day before modeling, PLO-225 mg/kg (modeling agent) was injected intraperitoneally 1 hour after the test drug was administered intragastrically on the day of modeling. And positive drug can be administered once 20 minutes before modeling. Observe for 30 minutes after PLO injection.
# Observation indicators: ①Seizure situation: the time of seizures from Grade II to Grade IV; (2)the time to death.
# Seizure grade: Refer to Racine grading standard: Grade 0: No response; Grade I: manifested as twitching of facial muscles or the corners of the mouth; Grade II: can nod; Grade III: twitching of one limb; Grade IV: rigidity or body twitching; Grade V: generalized epilepsy (generalized tonic seizures).
# Count the number of Grade IV seizures and deaths in each group of mice in the experiment; Grade II, III and IV incubation period. […] Chi-square test was used for statistics of the number of cases. The mean value and standard error of the incubation period were calculated, and TTEST was used to compare the model group with other groups. P<0.05 was considered as a significant difference.
molecule,measurement,setting,value
B1,Effect on increase in body temperature (summary),"[1]; 2, 4, 6 and 8 hours after modeling, dose not given",significantly inhibit the increase in body temperature
same,Body temperature 2 hours after modeling,[1]; BD-11 10 mg/kg oral,37.2±0.2 °C
same,Body temperature 4 hours after modeling,[1]; BD-11 10 mg/kg oral,37.7 °C
same,Body temperature 6 hours after modeling,[1]; BD-11 10 mg/kg oral,37.6 °C
same,Body temperature 8 hours after modeling,[1]; BD-11 10 mg/kg oral,37.4±0.1 °C
same,Body temperature 2 hours after modeling,[1]; BD-11 50 mg/kg oral,37.3 ± 0.1 °C
same,Body temperature 4 hours after modeling,[1]; BD-11 50 mg/kg oral,37.5 ± 0.2 °C
same,Body temperature 6 hours after modeling,[1]; BD-11 50 mg/kg oral,37.7 °C
same,Body temperature 8 hours after modeling,[1]; BD-11 50 mg/kg oral,37.7±0.2 °C
same,Effect on body temperature of model rats,"[1]; BD-11 10, 50 mg/kg oral, 2 hours after modeling","tendency to lower the body temperature of model rats 2 hours after modeling, but there is no statistically significant"
same,Writhing incubation period,[2]; BD-11 50 mg/kg oral,163.8 ± 8.2 s
same,Frequency of writhing,[2]; BD-11 50 mg/kg oral,35.0 ± 2.5 times
same,Effect on number of writhing in mice,"[2]; BD-11 200 mg/kg dose group, P<0.05 vs model group",significantly reduce the number of writhing
same,Writhing incubation period,[2]; BD-11 200 mg/kg oral,299.9 ± 65.2 s
same,Frequency of writhing,[2]; BD-11 200 mg/kg oral,23.3 ± 3.1 times
same,Effect on number of writhing times in mice (summary),[2]; dose not given,significantly reduce the number of writhing times
same,Cases of deaths,[3]; BD-11 50 mg/kg intragastric,0
same,Grade IV seizure rate,[3]; BD-11 50 mg/kg intragastric,50%
same,mortality rate,[3]; BD-11 50 mg/kg intragastric,0
same,Cases of Grade IV,[3]; BD-11 50 mg/kg intragastric,5
same,Grade II seizure incubation period,"[3]; BD-11 50 mg/kg, PLO model",95 ± 6 s
same,Grade III seizure incubation period,"[3]; BD-11 50 mg/kg, PLO model",164 ± 10 s
same,Grade IV seizure incubation period,"[3]; BD-11 50 mg/kg, PLO model",1357 ± 154 s
same,"Incubation period of epilepsy Grade III, comparison with model group","[3]; BD-11 200 mg/kg dose group, PLO model",statistically different from the model group
same,Cases of deaths,[3]; BD-11 200 mg/kg intragastric,0
same,Grade IV seizure rate,[3]; BD-11 200 mg/kg intragastric,60%
same,mortality rate,[3]; BD-11 200 mg/kg intragastric,0
same,Cases of Grade IV,[3]; BD-11 200 mg/kg intragastric,6
same,Grade II seizure incubation period,"[3]; BD-11 200 mg/kg, PLO model",96 ± 6 s
same,Grade III seizure incubation period,"[3]; BD-11 200 mg/kg, PLO model",164 ± 7 s
same,Grade IV seizure incubation period,"[3]; BD-11 200 mg/kg, PLO model",1114 ± 191 s
same,Effect on incubation period of Grade III epilepsy in mice (summary),[3]; dose not given,significantly prolong the incubation period of Grade III epilepsy
